According to patent US20110286916A1 (published 2011):
Like-named read-outs stand apart in the source and are kept apart here.

Columns and labels:
[1] = biological target: T1, human Notch3-Gal4 chimeric receptor on U2OS FlpIn TREx cells (human, UniProt Q9UM47 40-2321); assay: cell-based or functional assay
[2] = biological target: T2, human full-length Notch1 with C-terminal FLAG tag, stably expressed on 293 FlpIn (TREx) cells (human, UniProt P46531 19-2555); assay: FACS, hN1 293 cells, MFI grade (++++ >1000)
T2 construct: tetracycline/doxycycline-induced expression from pcDNA5/FRT/TO-HN1+FLAG; also called hN1; 293_N1
Protocol: (§1) Notch 293 FlpIn (TREx) cells were treated with dox (2 ug/ml) for two days to induce Notch expression before collecting them for FACS surface expression analysis. The cells were harvested from tissue culture flasks using Trypsin for 15 min, centrifuged at 1200 rpm for 10 minutes and resuspended in 2 ml PBS with 2% fetal bovine serum (2% FBS/PBS). The cells were counted, adjusted to 10⁷ cells/ml and 0.1 ml of cells was incubated with 1 ug of each Mab for 40 minutes at 4° C. The cells were washed, resuspended in 0.1 ml 2% FBS/PBS and incubated with 1 ug R-PE-conjugated goat anti-human Ig (Jackson ImmunoResearch) for 30 minutes at 4° C. Cells were washed, resuspended in 0.3 ml PBS with 10% formaldehyde and analyzed on a FACSCalibur (Becton Dickinson, Mt View, Calif.).
Clones were analyzed as described in Section I-Example 12. We analyzed the corresponding Mabs for their binding to 293-N1, -N3 and 293 parental cells by flow cytometry.

[3] = biological target: T1, human Notch3-Gal4 chimeric receptor on …; assay: cell-based or functional assay; remark: listed apart in the source
[4] = biological target: T2, human full-length Notch1 with …; assay: FACS, hN1 293 cells, MFI grade (++ 101-500)
Protocol: as §1

[5] = biological target: T3, Notch1 extracellular fragment (amino acid 19-526) Fc fusion protein, R&D Systems 3647-TK (human, UniProt P46531 19-526); assay: BIAcore SPR, Notch1/Fc on CM5, Mab analyte, 1:1 binding
T3 construct: bought protein; also called Notch1/Fc; Notch1-ECD Fc fusion protein; not shown: Fc of the bought fusion protein
Protocol: All experiments were performed at 25° C. at a flow rate of 40 μl/min. […] FC1 was used as the reference cell. Specific signals were the results of differences of signals obtained on FC2 versus FC1. […] The dissociation phase of the analyte was monitored over a period of time ranging 10-30 minutes. Running buffer was also injected under the same conditions as a reference.
Equilibrium dissociation constant (KD) was calculated by the ratio between dissociation (koff) and association (kon) rate constants.

[6] = biological target: T2, human full-length Notch1 with …; assay: FACS, hN1 293 cells, MFI grade (+ 11-100)
Protocol: as §1

Row | Binder | hN3, inhibition of Luc activity at [166 nM] Mab [1] [%] | MFI [2] [mfi] | hN3, inhibition of Luc activity at [166 nM] Mab [3] [%] | MFI [4] [mfi] | Kd [5] [nM] | koff [5] [s⁻¹] | kon [5] [M⁻¹ s⁻¹] | MFI [6] [mfi]
1 | A2780-C2-16 (antibody, human IgG1, lambda, V domains shown, full IgG1/lambda chains; name tied through the DNA section of Appendix IX (same order); also called B-000000397-000M) VH: EVQLVQSGAEVKKPGSSVKVSCKASGGTFSSFAFSWVRQAPGQGLDWMGRIIPILGRTNYAQKFQGRVTFTADTSTSTVYMELSSLSSEDTAVYYCARDREYSLSLGGSDYWGQGTLVTVSS VL: QAVLTQPSSVSGAPGQRVTISCIGSSSNIGAGYDVHWYRQPPGTAPQLLIYANTNRPSGVPDRFSGSRSGTSASLAITGIQAEDEADYYCQSYDSSLSGRVFGGGTKVTVLG | < 15 | > 1000 |  |  |  |  |  | 
2 | S3-009 (antibody, human IgG1, lambda, V domains shown, also called hN1S3-009; HN1S3-9) VH: EVQLVQSGAEVKKPGASVKVSCKASGYNFTGYYMHWVRQAPGQGLEWMGWINPNSGGTNYAQKFQGRVTMTRDTSISTAYMELSRLRSDDTAVYYCATDSFDYWGQGTMVTVSS VL: SYVLTQPPSVSEAPRQRVTISCSGSSSNIGNNAVSWYQQLPGKAPKTLIYYDDLLSSGVSDRFSGSRSGTSASLAISGLQSEDEADYYCAAWDDSLNGVVFGGGTKLTVLQ |  |  | < 20 | 101 to 500 | 5.23 | 0.00268 | 513000 | 
3 | WC-168 (antibody, human IgG1, lambda, V domains shown, also called N1wc168; hN1wc-168) VH: EVQLVQSGAEVKKPGASVKVSCKASGYNFTGYYMHWVRQAPGQGLEWMGWINPNSGGTNYAQKFQGRVTMTRDTSISTAYMELSRLRSDDTAVYYCATDSFDYWGRGTLVTVSS VL: not shown |  |  | < 10 |  | 4.7 | 0.00228 | 486000 | 11 to 100
4 | S3-013 (antibody, human IgG1, lambda, V domains shown, also called hN1S3-013; HN1S3-13) VH: EVQLVQSGAEVKKPGASVKVSCKASGYNFTGYYMHWVRQAPGQGLEWMGWINPNSGGTNYAQKFQGRVTMTRDTSISTAYMELSRLRSDDTAVYYCATDSFDYWGRGTLVTVSS VL: QPVLTQPPSASGTPGQRVTISCSGSSSNIGSNYVYWYQKFPGTAPKLLIYTNNQRPSGVPDRFSGSKSGTSASLAISGLRSEDEADYYCAAWDDSLSGVVFGGGTKVTVLQ |  |  | < 10 |  | 4.92 | 0.00294 | 597000 | 11 to 100
5 | S3-094 (antibody, human IgG1, lambda, V domains shown, also called hN1S3-094; HN1S3-94) VH: EVQLVQSGAEVKKPGASVKVSCKASGYNFTGYYMHWVRQAPGQGLEWMGWINPNSGGTNYAQKFQGRVTMTRDTSISTAYMELSRLRSDDTAVYYCATDSFDYWGRGTMVTVSS VL: QSVLTQPPSASGTPGQRVTISCSGGSSNIGSNTVTWYQQLPGKAPKLLIYISDQRPSGVPDRFSGSKSGTSASLAIRGLQSEDEADYYCAAWDDSLNGAVFGTGTKVTVLQ |  |  | < 10 | 101 to 500 | 3.89 | 0.00163 | 420000 | 
6 | S3-011 (antibody, human IgG1, lambda, V domains shown, also called hN1S3-011) VH: QVQLVQSGPEVKKPGASVKVSCKASGYNFTGYYMHWVRQAPGQGLEWMGWINPNSGGTNYAQKFQGRVTMTRDTSISTAYMELSRLRSDDTAVYYCATDSFDYWGRGTMVTVSS VL: not shown |  |  | < 10 | 101 to 500 |  |  |  | 
7 | S3-056 (antibody, human IgG1, lambda, V domains shown, also called hN1S3-056; HN1S3-56) VH: QVQLQQSGAEVKKPGASVKVSCKASGYNFTGYYMHWVRQAPGQGLEWMGWINPNSGGTNYAQKFQGRVTMTRDTSISTAYMELSRLRSDDTAVYYCATDSFDYWGRGTLVTVSS VL: not shown |  |  | < 10 |  | 5.65 | 0.00292 | 517000 | 11 to 100
8 | FL-JEG3-C2-11 (antibody, human IgG1, lambda, V domains shown, full IgG1/lambda chains; name tied through the DNA section of Appendix IX (same order); also called JEG-C2-11; B-000000399-000E) VH: QLQLVETGGGLVQPVGSLRLSCAASGFSFDNYAMSWVRQAPGKGLEWVSSISGSGGQIFYADSVKGRFTISRDNAKNTLVLQMNSLRVDDTAVYYCARDFYRTPGYNTNWGYWGRGTMVTVSS VL: SYVLTQPPSVSVSPGETASISCSGDGLGNKYVAWYQQKPGQSPVLVIQQDSKRPSGIPERFSGSNSGDTATLTISGTQSLDEGDYYCQAWDRPAVIFGGGTKLTVLG | < 5 | > 1000 |  |  |  |  |  | 
9 | FL-SKNAS-C2-514 (antibody, human IgG1, lambda, V domains shown, full IgG1/lambda chains; name tied through the DNA section of Appendix IX (same order); also called B-000000402-000X) VH: EVQLVQSGAEVKEPGESLRISCKASGYDFSNYWIAWVRQMPGKGLEWMGIIYPGDSDTRYSPSFQGQVTISVDRSISTAYLQWSSLKASDTALYYCSRPTYWSTTWGREFDYWGQGTLVTVSS VL: SYELTQPPSVSVSPGQTATITCSGDALPKKYAYWYQQKSGQAPVLVVYEDSKRPSGIPERFSGSSSGTMATLTISGAQVEDEADYYCYSTDSSGNHWVFGGGTKLTVLG | < 5 | > 1000 |  |  |  |  |  | 

The remaining lines, values ahead:

Row | hN3, inhibition of Luc activity at [166 nM] Mab [1] [%] | MFI [2] [mfi] | hN3, inhibition of Luc activity at [166 nM] Mab [3] [%] | MFI [4] [mfi] | Kd [5] [nM] | koff [5] [s⁻¹] | kon [5] [M⁻¹ s⁻¹] | MFI [6] [mfi] | Binder
10 |  |  | < 10 |  | 7.87 | 0.000438 | 55600 | 11 to 100 | WC-97 (antibody, human IgG1, lambda, V domains shown, also called N1wc97; hN1wc-97) VH: EVQLVQSGAEVKKPGASVKVSCKASGYNFTGYYMHWVRQAPGQGLEWMGWINPNSGGTNYAQKFQGRVAMTRDTSISTAYMELSRLRSDDSAVYYCATDSFDYWGRGTTVTVSS VL: QSVLTQPPSVSGAPGQRVTISCTGTSSNIGAGYDVQWYQQLPGTAPKVLMYGNSNRPSGVPDRFSGSKSGTSASLAITGLQAEDEADYYCQSYDSSLSGSLFGTGTKVTVLQ
11 |  |  | < 10 | 101 to 500 | 1.74 | 0.00029 | 166000 |  | WC-155 (antibody, human IgG1, lambda, V domains shown, also called N1wc155; hN1wc-155) VH: EVQLVQSGAEVKKPGASVKVSCKASGYNFTGYYMHWVRQAPGQGLEWMGWINPNSGGTNYAQKFQGRVTMTRDTSISTAYMELSRLRSDDTAVYYCATDSFDYWGRGTLVTVSS VL: QSVLTQPPSVSGAPGQRVTISCTGSSSNIGAGYDVLWYRQLPGTAPKLLIYGNTHRPSGVPDRFSGSNSGTSASLAITGLQAEDEADYYCQSYDSSLSGSVFGGGTKLTVLQ
12 |  |  | < 20 | 101 to 500 | 3.27 | 0.000447 | 137000 |  | WC-173 (antibody, human IgG1, lambda, V domains shown, also called N1wc173; hN1wc-173) VH: EVQLVQSGAEVKKPGASVKVSCKASGYNFTGYYMHWVRQAPGQGLEWMGWINPNSGGTNYAQKFQGRVTMTRDTSISTAYMELSRLRSDDTAVYYCATDSFDYWGQGTTVTVSS VL: QPVLTQPPSASWTPGQRVTISCSGSSSNIGSNTVHWYRQFPGTAPQLLIYSNNQRPSGVPDRFSGSKSGTSASLAIRGLQSEDEADYYCAAWDDSLNGVVFGGGIKLTVLQ
13 |  |  | < 10 | 101 to 500 | 1.09 | 0.000258 | 237000 |  | WC-613 (antibody, human IgG1, lambda, V domains shown, also called N1wc613; hN1wc-613) VH: not shown VL: SYELTQPPSASGTPGQRVTISCSGSYSNIGSNYVYWYQQLPGTAPKLLIYTNNQRPSGVPDRFSGSKSGTSASLVISGLRSDDEGDYYCAAWDDSVSVLLFGGGTKVTVLQ
14 | < 5 | > 1000 |  |  |  |  |  |  | FL-SKNAS-D2-268 (antibody, human IgG1, lambda, V domains shown, full IgG1/lambda chains; name tied through the DNA section of Appendix IX (same order); also called B-000000395-000V) VH: not shown VL: QAVLTQPSSVSGAPGQRVTISCTGTSSNIGAPYDVNWYQQLPGIAPKLLISGNTNRPSGVPDRFSGSKSGASASLAITGLQADDEADYYCQSYDHSLSGWVFGGGTKVTVLG
